The source of these data is paper PMC4773448, “Isolation and Characterization of a Novel Cold-Adapted Esterase, MtEst45, from Microbulbifer thermotolerans DAU221” (Frontiers in Microbiology, 2016).

Substrate in the data set: CCCC(=O)Oc1ccc([N+](=O)[O-])cc1
In words: purified protein. The class given is biochemical, Microbulbifer thermotolerans. To be noted: 20 mM Tris-HCl pH 8.17, 46.27 °C, 0.1-1 mM substrate.

B1: MtEst45 (Microbulbifer thermotolerans) (protein)
chain: APRFISNLDIISFDGTELDANLFVPDTPPPDGGYPTVLFTNSWALDKHQYLLQAKALAEKGYLVMSYSTRGFGKSGGLVDVAGDNTLADTRVLIDWLEANYPVGKLGMAGISYGAGISLLTAAADSRVDAVAALSGWSDVVEGLYPNNTVNLVWGTLLVNTAFKREPIVDQIWSNLRNGHNLSDVFTFSASRSALSYVDALNANGTAVLLSNNFADYLFKPNSTIDLYTLLEGPKKLLLNPGTHAVTETLGGNGGHIWTTSFRWFDRYLKGENNGIDREPKVDMTVRISNRLEQFDDFPVTGKQSHWYLHPRLTYFGNGQLKSNPYSGWRWSNQFHSGADTAAGTGIPLVSDALEGLGIPVYTFMPAINGYYAIEYQSPLLWNGMKIRGTPTLEMWITPSKPEVQLHLHLYDTGPLGMGRLITHAPITLRNAQVGREQKIDVEFFTTSYDVPAGHRVTLAIDTEGLIYQKPADTDYEITVPYRSDRVSKLAIPQL
notes: mature form without 21-residue signal peptide (495 aa of 516); N-terminal His6 (pCold I), E. coli BL21(DE3), tag not reported cut; about 45 kDa on SDS-PAGE
In the case of B1, the Km is 99.8 µM.

One may read the Km as the concentration of substrate that gives half-maximal velocity.
